Data reported in a protein production outcome set (Wang et al. 2014).

Assay: label from the status in PepcDB records

Sequence | protein production
MLTQTLDSPSGAKRLRVMSRHEREPVSQSKTDFSQQTRWMLAVRDNRDRLAFAALFDHFAPRLKGFVIRSGTPAHQAEEIVQDVMLTIWRKAAMFDPHRAQVSAWIYQIARNRQIDIARKENRPMPEELKEEPGTEPDASQILGLEQEAGQLKQALANLKPEQREIIEKAYLGELTHQEISAQTGLPLGTIKSRIRLGLERLRYELKDLKQ | failed
MEQDHVKVKKRVAFVLIDGLGDVTIPKLGYKTPLQAANIPNLDAIASAGINGLMDPVEVGLGCGSDTAHLSLMGYDPRVYYRGRGAFESMGAGLAMSPGDIAFKSNFATLDEKSGVVVSRRADRHFEEEGPILCAALDGLKLQSFPEYEVRVRYATEHRCGVVVKGPRLSGNISGTDPLKDNRLLLEAKPLDESEEATHTAKVVNELSREISRILVSHPVNAERAAQGKNIANLVLLRGCGIRIEVPPFHEKHGLWPCMVAPTKIIAGLGMSLGIDILEAPGATGDYRTLLTSKATAIANALSAPLNPCPNVFVPGEDGHKPGRSDGYDFGFLHIKAIDDAGHDKATMFKVRGLEAVDKAIRQLAKLLWQAESSTHYQYFLCVTGDHSTPVEYGDHSFEPVPFTMCRLRDFVSAVGGESAVLETSLDPFPLPTVVESGEDVTKQEEESGRREAPLAIGGDLVAELNEVAAARGCLGRFHGGEMMGVITNFLNLEV | failed
MKRLPLLAALPLLCASALSAQPLMSVGYFNGGGDVTAGPGGDIDKLDVRQITHLNYSFGLIYNDEKDETNAALKDPAHLHEIWLSPKVQADLQKLPALRKQNPDLKVLLSVGGWGARGFSGAAATAESRAVFIRSAQKIIQQYGLDGIDLDWEFPVNGAWGLVASQPADRDNFTALLKSLREAVGEQKLVTIAVGANAESPKSWVDVKAVAPVLNYINLMTYDMAYGTQYFNSNLYDSSHWPTVAAADKYSADFVVNNYLAAGLKPSQMNLGIGFYGRVPKRAVEPGIDWTKADAQNNPVTQPYFGPQQIALFASLGYDLSKDTYVKYNDIVGKLLNDPQKRFTEHWDDEAKVPWLSVQSAEGKPLFALSYENPRSVAIKADYIKAKGLAGAMFWEYGADDQNQLARQLAESLGIKH | not failed
MKMNNTKEYSIRTPSLGNLPPGTTGTCCPPPLVFPLLPLSPPPSPPPSPSSPPRLPPPFPALFPPEPPLPPRFELPPPLFPPPPLPRLPPPLLPPPEEPPREPPPPPPPPEEPPPPASCLRTKSPENGIVSTVK | failed
MIRFEIHGDNLTITDAIRNYIEEKVGKLERYFNNVPNAVAHVRVKTYSNSTTKIEVTIPLKDVTLRAEERHDDLYAGIDLITNKLERQVRKYKTRVNRKHRDRGDQDIFVAEVQESTTNNHADDIESENDIEIIRSKQFSLKPMDSEEAVLQMNLLGHDFFIFTDRETDGTSIVYRRKDGKYGLIETTELEHHHHHH | not failed
MDLLLKGGWVVTQERVEQADIAVEGEKIAAIGPDLEARAAAVRDVTGKYILPGAIDAHVHYQMPIGELLTADDWFTGTRLAACGGVTTVIDYAEPAGPAEPLTEALAKRLEEAREQACVDYGLHQVVLPGQEEDTGELAKVIEQGVTSFKVFTTYKQCLGYAAIGRLLKQARRLGALVTVHCEDHDLVTARRRELEATGQTDPAYHANSRPAAAEVKAIEKVIRQAAAAGAPVYIVHVSTGGGAELIAAARARGQQVFGETCPHYLLLTEERYAGPDSRLFLMCPPLRTVKDNRILWQHLASGDLQVVATDHCSYSPEQKAAGTAFYNTPSGVPGTETLLPLLYSYGVRQGRLTLPQMVRVLATNPARLFGLYPRKGCLAPGSDADLVVFDPSQEVILKASDLHSAAAYTIFEGFALQGYVEATYLRGRLIYDLGRFLGRAGQGEFIPGKITVL | failed
MTYEIVIAGFGGQGVLSMGKILAYSGLMEDKEVSWMPSYGPEQRGGTSNVTVIVSDEQVSSPVLNEYDIVIVLNQPSLDKFEARVKKGGILVYDPDSIVLKNKRDDIQIYEVDATQESLRMGNQK | failed
MQNQYFTVQENYKERFYQIPKVFFTSENYKNLTNDMKIAYAILRDRLNLSIKNSWVDEDGNIYFVYSNEKLMEILNCKKEKLTKIKKGL | failed
MATIHVDGKTLEVDGADNLLQACLSLGLDIPYFCWHPALGSVGACRQCAVKQYTDENDKRGRLVMSCMTPATDNTWISIEDEEAKQFRASVVEWLMTNHPHDCPVCEEGGHCHLQDMTVMTGHNERRYRFTKRTHQNQELGPFIAHEMNRCIACYRCVRYYKDYAGGTDLGVYGAHDNVYFGRVEDGVLESEFSGNLTEVCPTGVFTDKTHSERYNRKWDMQFAPSICHGCSSGCNISPGERYGEIRRIENRYNGSVNHYFLCDRGRFGYGYVNREDRPRQPLLVLSKQKLSLDGALDQAAALLKERKVVGIGSPRASLESNFALRELVGEGNFYSGINEGELDRLRLILQVMQEGPLPVPSIRDIEDHDAVFVLGEDLTQTAARIALALRQSVKGKAVEMAADMKVQPWLDAAVKNIAQHAQNPLFIASVSATRLDDVAEETVHAAPDDLARLGFAVAHAIDPSAPSVADLDPQAQAFAQRITDALLAAKRPLVVSGNSLGNKALIEAAANIAKALKQREKNGSISLVVGEANSLGLALFGGDSVEAALERLTSGQADAVVVLENDLYRRTDAARVDAALAAAKVVIVADHQQTATTAKAHLVLPAASFAEGDGTLVSQEGRAQRFFQVFDPTYYDARNMVREGWRWLHAIHSTLQGKRVDWTQLDHVTEAVAEAKPILAGIRDAAPAASFRIKGLKLAREPHRYSGRTAMRANISVHEPRTPQDIDSAFAFSMEGYSGSQEDRQQIPFAWSPGWNSPQAWNKFQDEVGGHLRAGDPGVRLIEPKGEGLDWFQAVPVPFSAKADSWKVVPLYHLFGSEENSSRAAPIQQRIPETYVALSKEDADRLGVNDGATLGFQLKGQALRLPLRIDEQLGAGLIGLPVGFAGIPAAIAGCSVEGLQ | failed
MFLFLTCKIGNRMVKLRTFINISEDLFVIRNLIGAILQGIGLAYLVPVLLAWFYPEEIPLVIYFAIPGFSCIILGWVLSKHMEKIEDVNLRQAMMASAFIWLFASLVSVIPFMGIAKMRFVDSYFETMSAWTGTGLTMMSNLESYPKILLFWRAWMQWLGGIGIVLVALTVLIRPGVAAARLYKAEARSERILPNFVNTAKIIVQIYAVLTLLGIYLYYSNGMSLFDATIHSMTGLGTGGMSSHDLSIGYFNSLAIETVTVFLMIMGATNFTVHYRMFKNRSLKEFFRDIQVRYMLYFITLIVALMTYSLVFFGHLTPIRALRESIFHAVSAITCTGFGISNLAEYPEIDKILLAILMVIGGSAGSTSGGIKLIRIVLMYQSLKWTIEQAILPKGAVIRKRVNGYEFTEEEIQEVLGFTMTYIAFLLLGTLYIMLRLGVRFADALFEVASAIGNVGLSVGITSPLLPLDIKILLTILMWVGRLEIFSTIVFIVGLAMIFSRRSKE | failed
MTTTPDWIMIGGDGPESYNQQSSYQRALLEATKDKMTKAISANLDLDLISNRFIVADFGCASGPNTFVAVQNIIDAVEEKYRRETGQNPADNIEFQVLFNDFSLNDFNTLFQTLPPGRRYFSAGVPGSFFERVLPKESFHIGVMSYAFHFTSKIPKGIMDRDSPLWNKDMQCTGFNPAVKKAYLDQYSIDTKILLDARAEELVPGGLMLLLGSCLRDGVKMSETPKGTVMDFIGESLSDLAKQGVTEQEKVDTFRTSIYFAEQGEIRQIIEENGKFTIEAFEDIIHAKNEFPFDPKTLAISFKAFYGAFISAHFGVEVMRKAFELVEVKAREQISRLHNSKPGMQYLIVLRKN | failed
MIGQFLITFREALEAAIIVAIIIAYLKRTDREEQIRDVWIGVGLSVLASVVLGAIILGLYGGIEEKELFEGIASYLAVIVLTSMIYWMATKGRNIRAEIERKVSKAINPLALVGFTFIVVFREGLETVLFLTPFAIQDLGGTLMGLVSGIIGALILAYLIYGVGMRINLRTFFYYSSILLVFVAAGLAGYGTHELIEWAEEEGMNLGFIEETAYNLGIPEDSVFHHKGVIGSIFAVLFGYSVKMEWGRVIVQFGYLIVTLYLVLRAYGQETPTAKAEK | failed
MQFKIIKAQELEKQQREKIAELCFAAFEEDPWSQYAFMQNAFHIIGLLGEDIVSHALWTDRVFTLNNHVTLKTAYIEYVTTDSTMRGRGLASKLLMYLINILTTKKYELAALQPEVEAFYRKLGWVSWGGNLYIKHNISIYKTDGIEVMLYPLSGGLKDQIVCSLKNDKICTDWREGELW | failed
MSLRIVVTVKYVPDATGDRHFAEDLTVDRDDVDGLLSELDEYAVEQALQIADDADDADDAEITVLTVGPEDAKDALRKALSMGADKAIHVEDDDLHGTDVIGTSLVLAKAIEKAGYDLVISGMASTDGTAGVVPALLAERLGVPQVTLLSEVSVEDGVVKGRRDGDSASEQLEASLPAVVSVTDQSGEARYPSFKGIMAAKKKPVESWDLSDLDLEAEEVGLEGAWTKVDSATERPARTAGTIVKDEGEGGKQLAEFLAGQKFI | failed
MCIAIPGKMTAIVDENTATIDMGGICRDVNMALMGGAEESMIGKHFLVHVGYAISEISEEESEETMRLLKIMAGLEEIDSFENESQ | failed
MTTTNEQEQSRAYILAGLFTLSLRLVVGWTYFSAFWRRLVLENKLIPDSAGYIGEKFNHFLPNSIGIRPVIEYLVSTPDMLWWAMVIFTLVEGIVGLLYMLGFFTRLMSIGVFSLATGILLGSGWLGTTCLDEWQIGILGIAAGFTIFLSGGGKYSVDHLIERKFSLKKKAAWLSWLTSGELPVSAKRFANVSVAGAIVIFTLSLYTNQEFHNGVWGPLHNKSVKPKIEISDAQIENNSLSFSVYRVEGVDVYGSFLIGISLKNADGDIVLEKKGEELADFPIGNIDNKYIARVAPGKHSLVIPLGSKATLTVDDTAIGSLPKGKYELVLTDISGITWKKEIIH | failed
MSLRLKKLQKIVPYSPLKSLKIWHLFCVVRLCSIVVTSMTAGKTPTHFTTQPLNRVLGETSGAFADLGTFLPLVLGLIALNQFSPQGIFLGFGVFAILSALFYRRPMPVQPMKVIAALVIAQGLTPGMLQASAMLMGIILLILAFSGAITWLAKQLSQAVSVGIQLAIGLQLMWMGAKMMSDFWLLGLGAFALLFASKFLPLRYLAMPLVIAAGMIWQANSQTDMATSLSIPALSASLHLAWPTLNEWSSAAILLVLPQLALTLTNAVIATSVMAQEKFPEDAAKLTPKNLAISSGLANLLLAPFGAAAMCHGAGGLAVQYHFGARTHLAPLIFGGTCLVIALFWDSQMAWLLGLIPVAILGSLLSIGGLQLAWSKRLIDGKPFCIFVILSTAVTCLAINAAAGLAVGIILEQGRRTWAMLAMR | failed
MNNISSNIKKVLFIFLVIFFVTISYITYFELIVSPKIVNNTDNKRLWAKRNEVLRGTIYDRNKKALTKSERVNTLTQKREYTGGAMFSHVLGYVNPQYGLTGLEAKYDQYLMGADDQPINQYLMELIKNKGKVSPEDKRGEDVVTTLDYNIQQQAYNLLGDNKGSVVVLNPKTGEILAMVSKPSYDPNDDALKASWAALNSNPDRPLLNRAVSGLYPPGSTFKTVTAISALENISGIQNETFNDPGQLVFNSTESLRDFGGESFGDIGFKHAYVVSSNVVFGKIGLQLGNNNLRQTAESFYFNKNIPCDGIVIDKSKFPTLKSYEKGNMAQSAIGQASVLATPIQMALVASTVANDGVMMKPHVVNEILSPNGDKIKSIEPESIGNIVSKENAATMKDFMRNVVEDGTGVNAAVEGIQVAGKTGTADHKVNGKDATPHSWFIGFAPYDNPQVAIAVIVEDGGQGGKAAAGIASKVIQTALQK | failed
MDHVHKSTTTDEDERNSGRAIDRHNPIIKDGRRSFADDFIKLPTSAEDGEMSNKKLEIYKGRRSITGRRSTGGGGGGGAAALLKLITNDIGLARKSFSCVARPACDLIKTPVGSTRYLLGSDPDSITGSVDQDPAKTVEAEAPAGEDKTLTEKKTTCGDTDQVSCFVVSIMSGINVNKW | failed
MHYTETGSPRLAILIDADNTFRFINVIDELLEEISKYGDVSIRRIYGDWTETKMQRWKEILPKYAIQPIQQYANTKGKNSTDSALIIDAMDLLYTAPLDGFCIVSSDSDFTRLATRLRESGKQVYGFGEQKTPDSLIAACNKFIYIEILSKEKLSDPPEPTPISTSETSASVESKPPAAPSTPLSPAALAPGIRKSSRELAMDTRLISLIRSAISALSDDDGYAHIGEIKKYMIKNFPAFDSRNYGYSKFSELIKATGLFDIDKDKQRIKDKRKK | failed
